Assay [1] deals with T1, His-tagged, full-length PCSK9 (human, UniProt Q8NBP7 31-692).
T1 construct: The secreted protein is autocleaved into a prodomain and a catalytic/Cys-rich chain that starts at S153; also called His-PCSK9
The assay is described as follows: TR-FRET competition; His-PCSK9, competitor EGF(A)-Fc.
Procedure: (§1) Signal generation in the PCSK9 binding assays was dependent upon the binding interaction to bring into close proximity the His-tag on the PCSK9 and the Fc-tag on the ligand. Anti-His-APC was bound to the His-tag, and anti-Fc-europium was bound to the Fc-tag.
(§2) Compounds were solubilized and dilutions were prepared in DMSO. […] The plate was centrifuged to mix the well contents and allowed to incubate for 30 min. […] The normalized TR-FRET ratios were plotted as a function of the compound concentrations, and the IC₅₀ values were determined using a 4-parameter logistic regression.

For a further assay, the target named is T2, His-tagged PCSK9Δhelix (human, UniProt Q8NBP7 31-152; Q8NBP7 168-692).
T2 construct: Construct M1-Q692 with engineered TEV site, cut by TEV protease; new N-terminus of the catalytic domain is S-A168; also called His-PCSK9Δhelix
T2 sequence (Q8NBP7 31-152, stated change not applied, chain 1 of 2): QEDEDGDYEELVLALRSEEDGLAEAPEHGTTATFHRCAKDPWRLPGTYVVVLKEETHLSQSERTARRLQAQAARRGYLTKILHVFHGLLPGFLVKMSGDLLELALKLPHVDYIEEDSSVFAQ
T2 sequence (Q8NBP7 other isoform, or with tags, fused parts or gaps mutant, chain 2 of 2): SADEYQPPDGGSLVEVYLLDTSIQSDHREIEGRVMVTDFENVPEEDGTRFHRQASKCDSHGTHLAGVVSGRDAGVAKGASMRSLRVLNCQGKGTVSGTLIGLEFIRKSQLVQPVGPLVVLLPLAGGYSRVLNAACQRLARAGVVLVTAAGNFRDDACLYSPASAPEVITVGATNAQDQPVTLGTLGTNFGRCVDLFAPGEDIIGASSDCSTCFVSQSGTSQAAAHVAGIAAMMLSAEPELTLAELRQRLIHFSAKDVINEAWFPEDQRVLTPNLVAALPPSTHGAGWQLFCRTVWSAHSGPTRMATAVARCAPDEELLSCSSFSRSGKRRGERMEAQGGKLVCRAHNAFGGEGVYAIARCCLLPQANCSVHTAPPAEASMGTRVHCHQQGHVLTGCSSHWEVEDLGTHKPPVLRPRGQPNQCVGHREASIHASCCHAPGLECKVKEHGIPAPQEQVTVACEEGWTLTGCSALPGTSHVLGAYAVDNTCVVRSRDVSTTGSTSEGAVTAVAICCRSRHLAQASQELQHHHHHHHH
Kind of assay: TR-FRET competition; His-PCSK9Δhelix, competitor Ab20. Background: In TR-FRET formats the signal depends on donor and acceptor labels being close together.

Ends that are not written are not given here. * marks the point of attachment. Pentanoyl = CCCCC(=O)*

The values below come from US20200283478A1 (Genentech, published 2020).

T1 sequence (Q8NBP7 other isoform, or with tags, fused parts or gaps limits assumed): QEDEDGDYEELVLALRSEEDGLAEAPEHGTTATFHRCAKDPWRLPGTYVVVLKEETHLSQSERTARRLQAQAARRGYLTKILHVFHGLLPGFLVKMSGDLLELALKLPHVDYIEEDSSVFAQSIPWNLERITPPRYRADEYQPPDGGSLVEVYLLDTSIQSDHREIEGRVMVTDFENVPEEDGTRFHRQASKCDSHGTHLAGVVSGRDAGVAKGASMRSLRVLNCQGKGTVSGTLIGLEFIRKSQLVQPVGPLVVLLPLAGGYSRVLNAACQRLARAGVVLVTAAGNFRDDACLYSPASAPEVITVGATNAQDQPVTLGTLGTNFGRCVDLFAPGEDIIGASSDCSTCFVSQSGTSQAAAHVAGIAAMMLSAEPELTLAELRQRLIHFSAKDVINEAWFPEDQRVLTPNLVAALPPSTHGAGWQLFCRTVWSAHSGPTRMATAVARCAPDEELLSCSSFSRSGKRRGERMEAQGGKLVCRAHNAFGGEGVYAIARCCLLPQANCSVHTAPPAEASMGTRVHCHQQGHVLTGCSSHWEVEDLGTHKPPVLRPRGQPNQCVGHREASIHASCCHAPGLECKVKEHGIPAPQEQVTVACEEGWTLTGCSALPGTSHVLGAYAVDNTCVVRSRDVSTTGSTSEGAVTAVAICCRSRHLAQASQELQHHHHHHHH
Procedure for His-tagged PCSK9Δhelix: as §1, §2

Usually IC50 stands for the concentration that inhibits the measured activity by half. A higher IC50 goes with lower potency. {n‑PrC(O)}-WNLVRIGLLR-NH2 [Compound 123]: the values for the IC50 (in assay [1]; in the assay with His-tagged PCSK9Δhelix) were at least 50 µM and 18 µM, respectively.

For WNLVRIGLTR (also: further groups not given here, Structure printed only as a drawing) [Compound 171], the 50% inhibitory concentration (IC50) in assay [1] was at least 50 µM; with His-tagged PCSK9Δhelix, 7.7 µM.

For WNLVRIGLTR (also: further groups not given here, Structure printed only as a drawing) [Compound 166], the half-inhibitory concentration (IC50) is at least 50 µM in assay [1] and 5.9 µM in the assay with His-tagged PCSK9Δhelix.

For WNLVRIGLTR (also: further groups not given here, Structure printed only as a drawing) [Compound 188], the IC50 in assay [1] worked out at 22 µM; in the assay with His-tagged PCSK9Δhelix it was 7.6 µM.

Consider WNLVRIGLTR (also: further groups not given here, Structure printed only as a drawing) [Compound 163], for which the IC50 in assay [1] was at least 50 µM; with His-tagged PCSK9Δhelix, 37 µM.

B1: Compound 179 (peptide)
peptide: Pentanoyl-WNLVRIGLGR-NH2
SMILES: CCCCC(=O)N[C@@H](Cc1c[nH]c2ccccc12)C(=O)N[C@@H](CC(N)=O)C(=O)N[C@@H](CC(C)C)C(=O)N[C@H](C(=O)N[C@@H](CCCNC(=N)N)C(=O)N[C@H](C(=O)NCC(=O)N[C@@H](CC(C)C)C(=O)NCC(=O)N[C@@H](CCCNC(=N)N)C(N)=O)[C@@H](C)CC)C(C)C
With B1, the concentration for half-maximal inhibition (IC50) in assay [1] was at least 50 µM; in the assay with His-tagged PCSK9Δhelix, 11 µM.

Consider WNLVRIGLTR (also: further groups not given here, Structure printed only as a drawing) [Compound 169], for which the IC50 is at least 50 µM in assay [1] and 6.8 µM in the assay with His-tagged PCSK9Δhelix.

Regarding WNLVRIGLTR (also: further groups not given here, Structure printed only as a drawing) [Compound 162], the values for the IC50 (in assay [1]; with His-tagged PCSK9Δhelix) were at least 50 µM and 37 µM, respectively.

B2: Compound 177 (peptide)
peptide: Pentanoyl-WNLVRIGLER-NH2
SMILES: CCCCC(=O)N[C@@H](Cc1c[nH]c2ccccc12)C(=O)N[C@@H](CC(N)=O)C(=O)N[C@@H](CC(C)C)C(=O)N[C@H](C(=O)N[C@@H](CCCNC(=N)N)C(=O)N[C@H](C(=O)NCC(=O)N[C@@H](CC(C)C)C(=O)N[C@@H](CCC(=O)O)C(=O)N[C@@H](CCCNC(=N)N)C(N)=O)[C@@H](C)CC)C(C)C
On to B2, for which the IC50 in assay [1] was at least 50 µM; with His-tagged PCSK9Δhelix it was 35 µM.

B3: Compound 178 (peptide)
peptide: Pentanoyl-WNLVRIGLDR-NH2
SMILES: CCCCC(=O)N[C@@H](Cc1c[nH]c2ccccc12)C(=O)N[C@@H](CC(N)=O)C(=O)N[C@@H](CC(C)C)C(=O)N[C@H](C(=O)N[C@@H](CCCNC(=N)N)C(=O)N[C@H](C(=O)NCC(=O)N[C@@H](CC(C)C)C(=O)N[C@@H](CC(=O)O)C(=O)N[C@@H](CCCNC(=N)N)C(N)=O)[C@@H](C)CC)C(C)C
Take B3: the half-maximal inhibitory concentration (IC50) in assay [1] is at least 50 µM; with His-tagged PCSK9Δhelix it was 18 µM.

B4: Compound 180 (peptide)
peptide: Pentanoyl-WNLVRIGLAR-NH2
SMILES: CCCCC(=O)N[C@@H](Cc1c[nH]c2ccccc12)C(=O)N[C@@H](CC(N)=O)C(=O)N[C@@H](CC(C)C)C(=O)N[C@H](C(=O)N[C@@H](CCCNC(=N)N)C(=O)N[C@H](C(=O)NCC(=O)N[C@@H](CC(C)C)C(=O)N[C@@H](C)C(=O)N[C@@H](CCCNC(=N)N)C(N)=O)[C@@H](C)CC)C(C)C
With B4, the IC50 was at least 50 µM in assay [1] and 12 µM in the assay with His-tagged PCSK9Δhelix.

Take WNLVRIGLTR (also: further groups not given here, Structure printed only as a drawing) [Compound 190]: the figures for the IC50 (in assay [1]; in the assay with His-tagged PCSK9Δhelix) were 30 µM and 7 µM, respectively.

Regarding Pentanoyl-WNLVRIGLTR [Compound 176], the IC50 in assay [1] was at least 50 µM; with His-tagged PCSK9Δhelix, 18 µM.

As for WNLVRIGTLR (also: further groups not given here, Structure printed only as a drawing) [Compound 182], the figures for the IC50 (in assay [1]; with His-tagged PCSK9Δhelix) were 14 µM and 4 µM, respectively.

Take WNLVRIGLTR (also: further groups not given here, Structure printed only as a drawing) [Compound 189]: the IC50 was found to be 38 µM in assay [1] and 12 µM with His-tagged PCSK9Δhelix.

Turning to WNLVRIGLTR (also: further groups not given here, Structure printed only as a drawing) [Compound 165], the IC50 in assay [1] was at least 50 µM; with His-tagged PCSK9Δhelix it was 18 µM.

In the case of WNLVRIGTLR (also: further groups not given here, Structure printed only as a drawing) [Compound 183], the 50% inhibitory concentration (IC50) worked out at 18 µM in assay [1] and 2.5 µM with His-tagged PCSK9Δhelix.

B5: Compound 181 (peptide)
peptide: Pentanoyl-WNLVRIGLSR-NH2
SMILES: CCCCC(=O)N[C@@H](Cc1c[nH]c2ccccc12)C(=O)N[C@@H](CC(N)=O)C(=O)N[C@@H](CC(C)C)C(=O)N[C@H](C(=O)N[C@@H](CCCNC(=N)N)C(=O)N[C@H](C(=O)NCC(=O)N[C@@H](CC(C)C)C(=O)N[C@@H](CO)C(=O)N[C@@H](CCCNC(=N)N)C(N)=O)[C@@H](C)CC)C(C)C
B5: the IC50 is at least 50 µM in assay [1] and 8.9 µM with His-tagged PCSK9Δhelix.

Turning to WNLVRIGLTR (also: further groups not given here, Structure printed only as a drawing) [Compound 164], the half-inhibitory concentration (IC50) in assay [1] was at least 50 µM; with His-tagged PCSK9Δhelix it was 12 µM.

On to WNLVRIGLTR (also: further groups not given here, Structure printed only as a drawing) [Compound 170], for which the half-inhibitory concentration (IC50) was at least 50 µM in assay [1] and 3.1 µM with His-tagged PCSK9Δhelix.

For WNLVRIGLTR (also: further groups not given here, Structure printed only as a drawing) [Compound 172], the concentration for half-maximal inhibition (IC50) in assay [1] was at least 50 µM; with His-tagged PCSK9Δhelix, 8.5 µM.

For the molecule WNLVRIGLTR (also: further groups not given here, Structure printed only as a drawing) [Compound 161], the IC50 was at least 50 µM in assay [1] and 5 µM in the assay with His-tagged PCSK9Δhelix.

Take WNLVRIGTLR (also: further groups not given here, Structure printed only as a drawing) [Compound 185]: the half-maximal inhibitory concentration (IC50) is 5.7 µM in assay [1] and 0.39 µM with His-tagged PCSK9Δhelix.

As for WNLVRIGTLR (also: further groups not given here, Structure printed only as a drawing) [Compound 184], the IC50 stood at 19 µM in assay [1] and 12 µM with His-tagged PCSK9Δhelix.

WNLVRIGLTR (also: further groups not given here, Structure printed only as a drawing) [Compound 167]: the 50% inhibitory concentration (IC50) in assay [1] was at least 50 µM; with His-tagged PCSK9Δhelix, 43 µM.

On to WNLVRIGLTR (also: further groups not given here, Structure printed only as a drawing) [Compound 168], for which the figures for the IC50 (in assay [1]; in the assay with His-tagged PCSK9Δhelix) were at least 50 µM and 7.8 µM, respectively.

On to WNLVRIGLTR (also: further groups not given here, Structure printed only as a drawing) [Compound 173], for which the 50% inhibitory concentration (IC50) is at least 50 µM in assay [1] and 9.8 µM with His-tagged PCSK9Δhelix.

B6: Compound 159 (peptide)
peptide: Pentanoyl-WNLKRIGLLR-NH2
SMILES: CCCCC(=O)N[C@@H](Cc1c[nH]c2ccccc12)C(=O)N[C@@H](CC(N)=O)C(=O)N[C@@H](CC(C)C)C(=O)N[C@@H](CCCCN)C(=O)N[C@@H](CCCNC(=N)N)C(=O)N[C@H](C(=O)NCC(=O)N[C@@H](CC(C)C)C(=O)N[C@@H](CC(C)C)C(=O)N[C@@H](CCCNC(=N)N)C(N)=O)[C@@H](C)CC
Regarding B6, the IC50 in assay [1] is at least 50 µM; in the assay with His-tagged PCSK9Δhelix it was 6.6 µM.

WNLVRIGLLR (also: further groups not given here, Structure printed only as a drawing) [Compound 128]: the IC50 in assay [1] is at least 50 µM; in the assay with His-tagged PCSK9Δhelix it was 7.5 µM.

As for WNLVRIGLLR (also: further groups not given here, Structure printed only as a drawing) [Compound 126], the half-inhibitory concentration (IC50) in assay [1] was at least 50 µM; with His-tagged PCSK9Δhelix, 19 µM.

Consider WNLVRIGLLR (also: further groups not given here, Structure printed only as a drawing) [Compound 129], for which the IC50 is at least 50 µM in assay [1] and 23 µM with His-tagged PCSK9Δhelix.

On to Ac-SGDLMPWNLVRIGLLR-NH2 [Compound 122], for which, in the assay with His-tagged PCSK9Δhelix, the half-inhibitory concentration (IC50) was 5.6 µM. That is a single-digit micromolar value.

As for Ac-GLMPWNLVRIGLLR-NH2 [Compound 124], the IC50 in assay [1] is at least 50 µM; with His-tagged PCSK9Δhelix, 3.9 µM.

Consider Ac-GGMPWNLVRIGLLR-NH2 [Compound 125], for which the IC50 was at least 50 µM in assay [1] and 7 µM with His-tagged PCSK9Δhelix.

With WNLVRIGLLR (also: further groups not given here, Structure printed only as a drawing) [Compound 127], the concentration for half-maximal inhibition (IC50) was at least 50 µM in assay [1] and 29 µM with His-tagged PCSK9Δhelix.
